Assay results reported in US20060228349A1.

What was measured:
[1] = biological target: ADDL fibril preparation (Aβ1-42 fibrils); assay: solution equilibrium titration, free IgG by ELISA, GraFit; SE 0.12
[2] = biological target: Aβ-derived diffusible ligands (synthetic ADDLs), soluble oligomers of amyloid β1-42; assay: solution equilibrium titration, free IgG by ELISA, GraFit; SE 0.042
[3] = biological target: amyloid beta (1-40) peptide; assay: solution equilibrium titration, free IgG by ELISA, GraFit; SE 0.62
Aβ1-20 peptide = assay: solution equilibrium titration, free IgG by ELISA, GraFit; SE 3.53
Sequence of Aβ1-20 peptide (peptide, as listed by the source): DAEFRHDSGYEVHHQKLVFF

Kd [1]: 1.15 nM | Kd [2]: 0.57 nM | Kd [3]: 6.15 nM | Kd (Aβ1-20 peptide): 19.3 nM
Substance: monoclonal antibody WO-2
